Measured values from US20220090025A1.

Biological target: CAR (coxsackie and adenovirus receptor) (human) (UniProt P78310)
Experiment: cell-based or functional assay

Chain of UniProt P78310 (P78310 20-365): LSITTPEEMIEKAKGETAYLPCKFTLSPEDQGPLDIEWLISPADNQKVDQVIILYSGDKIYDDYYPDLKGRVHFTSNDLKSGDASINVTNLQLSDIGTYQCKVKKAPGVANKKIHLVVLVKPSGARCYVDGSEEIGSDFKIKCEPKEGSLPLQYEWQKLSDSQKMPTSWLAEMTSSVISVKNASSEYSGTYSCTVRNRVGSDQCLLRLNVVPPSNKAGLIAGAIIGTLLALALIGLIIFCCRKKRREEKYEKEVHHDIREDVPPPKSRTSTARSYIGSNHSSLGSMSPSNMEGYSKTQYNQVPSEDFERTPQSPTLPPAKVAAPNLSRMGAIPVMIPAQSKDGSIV

## CAR-specific fiber protein (fiber protein of adenovirus) (ligand)
  reduction of GFP transduction of U343 cells by naked type Ad (MOI 20) after pretreatment with fiber protein at 0.2 µg/ml, flow cytometry: 67 % reduced
  reduction of GFP transduction of U343 cells by naked type Ad (MOI 20) after pretreatment with fiber protein at 2 µg/ml, flow cytometry: 90 % reduced
